Results as given in US20120231000A1.

Key:
[1] = target: humVEGF1-165 homodimer (recombinant full-length humanVEGF) (human) (UniProt P15692); assay: ELISA titer on coated humVEGF1-165, 5000 ng/mL
[2] = target: ratVEGF1-165 homodimer (recombinant full-length ratVEGF) (rat) (UniProt P16612); assay: ELISA on coated antigen
Chain of ratVEGF1-165 homodimer (recombinant full-length ratVEGF) (rat) (P16612 27-165, form in doubt): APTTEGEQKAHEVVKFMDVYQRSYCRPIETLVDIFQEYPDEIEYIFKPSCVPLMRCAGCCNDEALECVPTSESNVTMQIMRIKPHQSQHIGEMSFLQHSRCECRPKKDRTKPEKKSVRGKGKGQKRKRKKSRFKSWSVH

Chain of humVEGF1-165 homodimer (recombinant full-length humanVEGF) (human) (P15692 other isoform, or with tags, fused parts or gaps): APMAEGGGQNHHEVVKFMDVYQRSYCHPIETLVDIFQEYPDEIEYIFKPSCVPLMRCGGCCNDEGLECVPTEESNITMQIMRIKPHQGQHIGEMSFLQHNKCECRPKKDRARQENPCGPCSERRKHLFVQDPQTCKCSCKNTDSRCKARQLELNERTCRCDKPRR

Row | Substance | Titer (-10log dilution) [1] | ELISA signal at dilution 1/100 [2] | ELISA signal at dilution 1/300 [2] | ELISA signal at dilution 1/1000 [2] | titer endblood [2] [ng/mL]
1 | BioVision™ (control Ab) (antibody) | 4.2 | – | – | – | –
2 | Avastin™ (Bevacizumab) (antibody) | – | 236 | 148 | 103 | < 1000
